In PMC8273888 one finds Km, kcat and kcat/Km data, which are given here for 1 protein.

Holding throughout (assay): Kinetic parameters of hydrolysis of cephalosporin conjugates
What all share (assay type): biochemical
Holding throughout (conditions): other: compound as substrate of IMP-28; pH 7.2; 25.0 °C

Substrate in data set [1]: [H][C@]12SCC(CS[C@H](Cc3ccccc3)C(=O)O)=C(C(=O)O)N1C(=O)[C@H]2NC(=O)Cc1ccccc1
Substrate in data set [2]: [H][C@]12SCC(CSCc3ccccc3)=C(C(=O)O)N1C(=O)[C@H]2NC(=O)Cc1ccccc1
Substrate in data set [3]: [H][C@]12SCC(CS[C@@H](Cc3ccccc3)C(=O)O)=C(C(=O)O)N1C(=O)[C@H]2NC(=O)Cc1ccccc1
Substrate in data set [4]: [H][C@]12SCC(CSCCc3ccccc3)=C(C(=O)O)N1C(=O)[C@H]2NC(=O)Cc1ccccc1
Substrate in data set [5]: [H][C@]12SCC(CSC(C(=O)O)c3ccccc3)=C(C(=O)O)N1C(=O)[C@H]2NC(=O)Cc1ccccc1

B1: IMP-28 (Klebsiella oxytoca) (protein)
chain: ESLPDLKIERLDEGVYVHTSFEEVNGWGVVPKHGLVVLVNTEAYLIDTPFTAKDTEKLVTWFVGRGYKIKGSISSHFHSDSTGGIEWLNSQSIPTYASELTNELLKKDGKVQAKNSFGGVSYWLVKNKIEVFYPGPGHTPDNVVVWLPENRVLFGGCFVKPYGLGNLGDANLEAWPKSAKLLMSKYGKAKLVVPSHSEVGDASLLKRTLEHAVKGLNESKKPSKPSN
As to B1, the Km in data set [1] amounted to 249 ± 7 µM; in data set [2] it was 20.5 ± 4 µM; in data set [3] it was 175 ± 19 µM; in data set [4] it was 83.3 ± 16 µM; in data set [5], 129 ± 13 µM. For the same protein, the kcat stood at 2.83 s⁻¹ in data set [1]; 10.8 s⁻¹ in data set [2]; 41 s⁻¹ in data set [3]; 6.12 s⁻¹ in data set [4]; 0.386 s⁻¹ in data set [5]. The kcat/Km is 11000 M⁻¹ s⁻¹ in data set [1]; 529000 M⁻¹ s⁻¹ in data set [2]; 234000 M⁻¹ s⁻¹ in data set [3]; 73000 M⁻¹ s⁻¹ in data set [4]; 3000 M⁻¹ s⁻¹ in data set [5].

As a reminder, the Km is the substrate concentration at which the rate is half of its maximum. By kcat is commonly meant the number of substrate molecules converted per active site and unit of time at saturation. The kcat/Km is the second-order rate constant that governs catalysis at low substrate concentration.
